Laboratory results reported in patent US7691590B2, “Reducing myelin-mediated inhibition of axon regeneration” (Children's Medical Center Corporation, priority 2001, dated 2010).
Where two headings read alike, the source gives them in different places.

T1: Nogo receptor (NgR) (Homo sapiens, UniProt Q9BZR6)
T1 construct: both cDNAs contained the full-length coding region of the Nogo-66 receptor (NgR); expressed in transfected cells; host or cells: CHO cells stably expressing NgR (COS-7 for the library clones)
T1 sequence (Q9BZR6 27-473): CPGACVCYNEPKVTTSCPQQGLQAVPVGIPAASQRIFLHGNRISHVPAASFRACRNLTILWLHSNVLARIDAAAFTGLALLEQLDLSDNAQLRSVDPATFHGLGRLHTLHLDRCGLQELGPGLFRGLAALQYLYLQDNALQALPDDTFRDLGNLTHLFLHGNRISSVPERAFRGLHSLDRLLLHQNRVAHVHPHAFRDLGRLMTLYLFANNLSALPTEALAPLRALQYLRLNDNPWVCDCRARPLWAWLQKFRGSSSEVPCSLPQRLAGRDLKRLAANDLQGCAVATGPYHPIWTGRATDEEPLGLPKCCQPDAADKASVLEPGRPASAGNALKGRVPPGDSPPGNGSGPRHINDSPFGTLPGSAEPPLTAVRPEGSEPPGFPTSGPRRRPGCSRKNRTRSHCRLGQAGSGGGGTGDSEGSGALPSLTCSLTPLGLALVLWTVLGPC

B1: AP-OM: alkaline phosphatase fusion protein containing mouse OMgp, polyhistidine and myc tagged (protein)
chain: ICPLQCTCTERHRHVDCSGRNLTTLPPGLQENIIHLNLSYNHFTDLHNQLTPYTNLRTLDISNNRLESLPAQLPRSLWNMSAANNNIKLLDKSDTAYQWNLKYLDVSKNMLEKVVLIKNTLRSLEVLNLSSNKLWTVPTNMPSKLHIVDLSNNSLTQILPGTLINLTNLTHLYLHNNKFTFIPEQSFDQLLQLQEITLHNNRWSCDHKQNITYLLKWVMETKAHVIGTPCSKQVSSLKEQSMYPTPPGFTSSLFTMSEMQTVDTINSLSMVTQPKVTKTPKQYRGKETTFGVTLSKDTTFSSTDRAVVAYPEDTPTEMTNSHEAAAATLTIHLQDGMSSNASLTSATKSPPSPVTLSIARGMPNNFSEMPRQSTTLNLRREETTANGNTRPPS
modifications: left off: large carriers; small tags and cut ends
notes: alkaline phosphatase fusion protein containing mouse OMgp, polyhistidine and myc tagged
B2: Nogo-66: 66 amino acid extracellular domain of Nogo-A (protein)
chain: RIYKGVIQAIQKSDEGHPFRAYLESEVAISEELVQKYSNSALGHVNCTIKELRRLFLVDDLVDSLK
modifications: left off: large carriers
notes: 66 amino acid extracellular domain of Nogo-A

Columns and labels:
[1] = test system: growth cones of E13 chick DRG neurons; assay: Growth cone collapse assay with E13 chick DRG explants; assay type: cell-based; settings: E13 chick DRG
From the text: OMgp is a Physiological Nogo Receptor Ligand and Inhibitor of Neurite Outgrowth. To examine whether any GPI-linked proteins in CNS myelin may act as inhibitors of neurite outgrowth, we treated purified bovine white matter myelin with phosphatidylinositol-specific phospholipase C (PI-PLC) and examined the released proteins for their ability to alter growth cone morphology in a growth cone collapse assay using embryonic day 13 chick dorsal root ganglia (E13 DRG)^6,9,10. […] Since the size of this band was similar to that of a previously identified CNS myelin protein OMgp^11,12, we used antibodies specific for OMgp to detect enrichment of cleaved OMgp in the PI-PLC supernatants by Western blot. […] Next, we examined whether purified recombinant OMgp protein was able to act as an inhibitor of neurite outgrowth in two well-established in vitro assays, the growth cone collapse^6,9,13 and the neurite outgrowth assays^3-7,9.
Growth Cone Collapse and Neurite Outgrowth Assays. Chick E13 DRG and E7 retina were isolated and cultured as described previously^9,10. DRG explants cultured overnight were used for growth cone collapse assays. To assess the effects of PI-PLC treatment, cultures were pre-incubated with 2 U/ml PI-PLC for 30 min prior to treatment with individual test proteins for an additional 30 min. To express NgR in E7 retinal ganglion neurons, we infected the explants with recombinant HSV for 24 hr. After incubation with each test protein for 30 min, retinal explants were fixed in 4% paraformaldehyde and 15% sucrose. Infection of HSV-LacZ was detected by a standard b-galatosidase staining protocol^20. FLAG-NgR expression was detected by incubating paraformaldehyde-fixed cultures with M2 anti-FLAG antibody (Sigma). Bound antibody was detected by incubation with AP-conjugated […] IgG second antibody and reaction with NBT and BCIP (Vector labs). Growth cone collapse was quantified only in those positively stained for b-galatosidase or immunoreactive for the FLAG epitope.

Nogo receptor (NgR) [2] = target: T1, Nogo receptor (NgR); assay: Cell surface binding of AP fusion proteins to NgR-expressing cells (saturation analysis); settings: CHO cell line stably expressing NgR; read-out: binding affinity of expressed NgR for AP-OM
Method: To investigate the mechanisms by which OMgp inhibits neurite outgrowth, we used an expression cloning strategy^9,13,16 to identify cell surface OMgp-binding proteins. […] From pools of an adult human brain cDNA expression library, we isolated two cDNAs that encoded OMgp-binding proteins. […] We then established a CHO cell line stably expressing the NgR and determined the binding affinity of expressed NgR for AP-OM as 5 nM, similar to what had been determined for Nogo-66 (7 nM, ref. 9). […] We next performed co-precipitation experiments by incubating GST or a GST fusion protein containing the entire extracellular domain of NgR (GST-NgR) with OM-his alone or in the presence of AP or AP-66 protein. […] We next determined which domain(s) of OMgp was responsible for binding to NgR. Like NgR, OMgp is also a GPI-linked protein containing a leucine-rich repeat (LRR) domain. […]
Cell surface binding and expression cloning were performed as described previously^4,13,17. […] After extensive washing and heat inactivation, the bound proteins were detected by AP staining using nitro blue tetrazolium (NBT) and 5-bromo-4-chloro-3-indoyl phosphate (BCIP) as substrate. For saturation analysis, we disrupted cells and detected bound AP fusion proteins using r-nitrophenyl phosphate as substrate. […]

[3] = test system: chick E7 retinal ganglion neurons (RGN) expressing human NgR; assay: Growth cone collapse in E7 retinal ganglion neurons expressing FLAG-NgR (HSV infection); assay type: cell-based; settings: E7 RGN infected with HSV FLAG-NgR
From the text: To assess whether NgR is capable of mediating OMgp-induced inhibitory activity on neurite outgrowth, we next took a gain-of-function approach to examine whether expression of NgR was able to confer OMgp-responsiveness to otherwise insensitive neurons. It has been shown previously that chick E7 retinal ganglion neurons (RGN) are insensitive to Nogo-66, but that introduction of exogenous NgR in these neurons rendered their growth cones to be responsive to Nogo-66^9. Using the same strategy, we made a recombinant herpes simplex virus (HSV) that drives expression of a FLAG-tagged full-length human NgR (FLAG-NgR) in infected neurons. Upon infection, 80% of the E7 RGNs expressed the FLAG-NgR protein as assessed by immunocytochemistry with an anti-FLAG antibody. […] Furthermore, the growth cones of NgR-expressing axons also become collapsible by OMgp.
Growth Cone Collapse and Neurite Outgrowth Assays. […] Infection of HSV-LacZ was detected by a standard b-galatosidase staining protocol^20. FLAG-NgR expression was detected by incubating paraformaldehyde-fixed cultures with M2 anti-FLAG antibody (Sigma). Bound antibody was detected by incubation with AP-conjugated […] IgG second antibody and reaction with NBT and BCIP (Vector labs). Growth cone collapse was quantified only in those positively stained for b-galatosidase or immunoreactive for the FLAG epitope.

Nogo receptor (NgR) [4] = target: T1, Nogo receptor (NgR); settings: read-out: binding affinity of NgR for Nogo-66; cited from earlier work

| Molecule | growth cone collapsing activity [1] | Kd (Nogo receptor (NgR) [2]) [nM] | growth cone collapsing activity after PI-PLC treatment of the neurons ([1]; PI-PLC pre-incubation) | growth cone collapse response in NgR-expressing neurons [3] | Kd (Nogo receptor (NgR) [4]) [nM] |
| --- | --- | --- | --- | --- | --- |
| B1 | induce collapse | 5 |  |  |  |
| B2 |  |  | insensitive | conferred a growth cone collapse response | 7 |
